Tested on: primer-template complex 5
Assay: Steady-state kinetic analysis of dA incorporation in 5 by Pol θ variants (polymerase activity)
Format: biochemical
Conditions: dA incorporation in 5, 25° C.
Method: 1.4.3. Steady-state kinetic analysis of dA incorporation in 5 by Pol θ. Polymerase reactions were conducted with Pol θ (432 pM for wild type Pol θ and 5 nM for K2383A and K2383R), 5′-^32P-5 (50 nM), and a range of dATP concentrations (0.25 μM-100 μM for wild type and 62.5-5000 μM for mutants) at 25° C. in reaction buffer (10 mM Tris HCl pH 8, 25 mM KCl, 10 mM MgCl2, 1 mM BME). The concentration range for dATP and the reaction time were selected so that reactions proceeded no further than 25% (single-hit conditions). In a typical experiment, a 2×DNApolymerase solution was prepared by mixing 5′-^32P-5 (500 nM, 18 μL), 10×reaction buffer (18 μL), 10×Pol θ (4.32 nM for wild type or 50 nM for mutants, 18 μL) in storage buffer (20 mM Tris HCl pH 7, 300 mM NaCl, 10% glycerol, 5 mM BME), and H2O (36 μL). The 2×DNAenzyme solution (3 μL) was mixed with the appropriate 2×dNTP solution (3 μL) to initiate the reaction. Reactions were incubated for 20 s for wild type Pol θ, 1.5 min for K2383R, and 4 min for K2383A, after which, they were quenched with 95% formamide loading buffer containing 25 mM EDTA (6 μL). An aliquot (4 μL) was analyzed by 20% denaturing PAGE run at 55 W for approximately 3.5 h. The gel was analyzed by phosphorimaging, and the data were fit to the Michaelis-Menten equation. The kcat was determined by dividing Vmax by the active concentration of enzyme. […]

B1: wt28: wild type Pol θ catalytic core (residues 1792-2590) (protein, UniProt O75417 1792-2590, looked up, fragment)
chain: GFKDNSPISDTSFSLQLSQDGLQLTPASSSSESLSIIDVASDQNLFQTFIKEWRCKKRFSISLACEKIRSLTSSKTATIGSRFKQASSPQEIPIRDDGFPIKGCDDTLVVGLAVCWGGRDAYYFSLQKEQKHSEISASLVPPSLDPSLTLKDRMWYLQSCLRKESDKECSVVIYDFIQSYKILLLSCGISLEQSYEDPKVACWLLDPDSQEPTLHSIVTSFLPHELPLLEGMETSQGIQSLGLNAGSEHSGRYRASVESILIFNSMNQLNSLLQKENLQDVFRKVEMPSQYCLALLELNGIGFSTAECESQKHIMQAKLDAIETQAYQLAGHSFSFTSSDDIAEVLFLELKLPPNREMKNQGSKKTLGSTRRGIDNGRKLRLGRQFSTSKDVLNKLKALHPLPGLILEWRRITNAITKVVFPLQREKCLNPFLGMERIYPVSQSHTATGRITFTEPNIQNVPRDFEIKMPTLVGESPPSQAVGKGLLPMGRGKYKKGFSVNPRCQAQMEERAADRGMPFSISMRHAFVPFPGGSILAADYSQLELRILAHLSHDRRLIQVLNTGADVFRSIAAEWKMIEPESVGDDLRQQAKQICYGIIYGMGAKSLGEQMGIKENDAACYIDSFKSRYTGINQFMTETVKNCKRDGFVQTILGRRRYLPGIKDNNPYRKAHAERQAINTIVQGSAADIVKIATVNIQKQLETFHSTFKSHGHREGMLQSDQTGLSRKRKLQGMFCPIRGGFFILQLHDELLYEVAEEDVVQVAQIVKNEMESAVKLSVKLKVKVKIGASWGELKDFDV
modifications: catalytic core
Work on B1 yielded a Km of 5 ± 1 µM and a kcat of 65 ± 12 min⁻¹.
